Source: the supplement of paper PMC9170038

What was measured:
MS2 coat protein [1] = assay: apparent KD of MS2 coat protein, switch ON state; designed switch direction (-1 OFF switch, 1 ON switch): -1; higher = weaker reporter binding; conditions: FMN input: 0 or 200 uM; Eterna round: R93 (includes R88 designs)
In short: (§1)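 The buffer was 100 mM Tris-HCl pH 7.5 with 80 mM KCl and 4 mM MgCl2, used without or with constant ligand. In it, RNA switches transcribed on-chip from Illumina sequencing clusters were titrated with SNAP-549-labelled MS2 coat protein in twofold steps from 0.7 or 1.5 nM to 3 µM. Apparent KD for each design is the median of its normalised cluster binding-curve fits.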

MS2 coat protein [2] = assay: apparent KD of MS2 coat protein, switch OFF state (with FMN for OFF switches, without FMN for ON switches); designed switch direction (-1 OFF switch, 1 ON switch): -1; higher = weaker reporter binding; conditions: FMN input: 0 or 200 uM; Eterna round: R93 (includes R88 designs)
In short: as §1

Row | Sequence | apparent KD of MS2 coat protein (MS2 coat protein [1]) [nM] | apparent KD of MS2 coat protein (MS2 coat protein [2]) [nM]
1 | AACAUGUAAGGAUAUGAAAGAAAAGAAAAGAAAGAAAAGAAUCAGAAGGUACAUGAGGAUCACCCAUGUAAGAA [EteRNA is fun!] | 34.7 | 26.7
2 | AACCAACAUGAGGAUCACCCAUGUCAGGAUAUGCAAAUAACAAACAACAAACAACAAAGCAGAAGGGACAACAA [Mat - Exclusion 1 - Eli mod - D50] | 15.4 | 20.5
3 | AACUAACAUGAGGAUCACCCAUGUCAGGAUAUGCAAAGAACGAUCGAACGAACGAUAAGCAGAAGGGACAAAAA [Amethyst 96] | 29.8 | 42.1
4 | AACUGACAUGAGGAUCACCCAUGUCAGGAUAUGACUUGAAAAAUAAAAUAAAAACAUGUCAGAAGGGACAUGGG [Design 54 :P Sub-opt H] | 20.2 | 18.9
5 | AACUGACAUGAGGAUCACCCAUGUCAGGAUAUGACUUGACGAAAAAAAACACGUCAUGUCAGAAGGGACAUGGA [Design 89: Sub-opt Z] | 21.8 | 37.3
6 | AACUGACAUGAGGAUCACCCAUGUCAGGAUAUGACUUGAUAGAAAAUAAAAUAUCAUGUCAGAAGGGACAUGAA [Design 61: Sub-opt KB] | 14.3 | 12.4
7 | AACUGACAUGAGGAUCACCCAUGUCAGGAUAUGAUUUGACGAAAUAAAAUAAGUCAUAUCAGAAGGGACAUGGG [Design 83: Sub-opt VB] | 26.2 | 21.2
8 | AACUGCGCAGGAUAUACAUGAGGAUCACCCAUGUAAAGAAAAGAAAGAUCCGAAGAAAGUAGAAGGGCGUGGAA [Variant 2 of Mod 1 of Ex3 sub 3, by Tesla's Dusciple Round 1] | 43.2 | 56.3
9 | AAGAAAGCAGGAUAUACAAGAAAGAAAGAAAAGAAAAGAAAACAUGAGGAUCACCCAUGUAGAAGGGCUUAGAA [EteRNA is fun!] | 27.9 | 23.1
10 | AAGAAAGCAGGAUAUACAUGAGGAUCACCCAUGUAAAAGAAAGAAAGGGAAAAGAAAAGUAGAAGGGCUAAGAA [Usermaatre-setepenre Pami] | 23.6 | 26.1
11 | AAGAAAGGAGGAUAUACAAAAUAAAAGAAAAGAAAGAAAGAACAUGAGGAUCACCCAUGUAGAAGGCCUAAGAA [Merhotepre Sobekhotep V] | 23.5 | 14.4
12 | AAGAACAGAGGAUAUACAUGAAAGAAAGAAAAGAAAAGAAAACAUGAGGAUCACCCAUGUAGAAGGCUGAAGAA [EteRNA is fun!] | 28.1 | 25.1
13 | AAGAACUCAGGAUAUGCUAAAGAAAUAAAAAUAAAUAAAGAACAUGAGGAUCACCCAUGUAGAAGGGAGAAGAA [Merkawre Sobekhotep VII] | 76.4 | 46.2
14 | AAGAAGAGAGGAUAUACAUGAGGAUCACCCAUGUAAAAGAAAGAAAAGGGAAAGAAAAGUAGAAGGCUCAAGAA [Aakheperrure Amenhotep II] | 26.4 | 38.3
15 | AAGAAGGGAGGAUAUACAAAAUAAAAGAAAAGAAAGAAAGAACAUGAGGAUCACCCAUGUAGAAGGCUCAAGAA [Mersekhemre Ined] | 37.2 | 24.9
16 | AAGAAGUCAGGAUAUCGAAGACAGACGAAAAGUCUGUCAAACGAGAAGGGACAUGAGGAUCACCCAUGUAAAGA [Mat - Exaclusion 4 - Eli mod - D73] | 63.1 | 61
17 | AAGAAGUCAGGAUAUGCCAAAGGUCACGAAAGUGACAAAGGGCAGAAGGGACAUGAGGAUCACCCAUGUAAAGA [Opal 2] | 47.2 | 56.7
18 | AAGAAGUCAGGAUAUGCGAAUCGAUAAGAACGUCAAAGAAAGCAGAAGGGACAUGAGGAUCACCCAUGUAAAGA [Opal 39] | 30.7 | 27.6
19 | AAGAAGUCAGGAUAUGCUAAAGAAAUGAAAAGAAAGAAAGAACAUGAGGAUCACCCAUGUAGAAGGGACAAGAA [Dedumose I] | 47.1 | 38.3
20 | AAGAAGUGAGGAUAUACAUGAGGAUCACCCAUGUAAAAGAAAGAAAAGGGAAAGAAAAGUAGAAGGCACAAGAA [Maatkare Hatshepsut] | 36.2 | 58.3
21 | AAGAAGUGAGGAUAUACAUGAGGAUCACCCAUGUAAAGAAGAAGAGGAGAGAAUAAAGGUAGAAGGCACAAGAA [JR_Exclusion3_Sub4] | 33.6 | 39.6
22 | AAGAAGUGAGGAUAUGUCUGUGCGAAAAAAAAAAAGUGCAGACAGAAGGCACAUGAGGAUCACCCAUGUGGAAA [Florian 65% 5] | 27.8 | 29.1

Row | Sequence | apparent KD of MS2 coat protein (MS2 coat protein [1]) [nM] | apparent KD of MS2 coat protein (MS2 coat protein [2]) [nM]
23 | AAGAAUCGAGGAUAUACAAAAUAAAAGAAAAGAAAGAAAGAACAUGAGGAUCACCCAUGUAGAAGGCGAAAGAA [Khaneferre Sobekhotep IV] | 30.3 | 21.9
24 | AAGAAUGCAGGAUAUACAUGAAAGAAAGAAAAGAAAAGAAAACAUGAGGAUCACCCAUGUAGAAGGGCAUAGAA [EteRNA is fun!] | 26.8 | 44.1
25 | AAGACUACAGGAUAUACAUGAGGAUCACCCAUGUAACUGACAAGUAGAGGACGGAGAAGUAGAAGGGUAGUCAA [Ruby 35] | 13.6 | 26.7
26 | AAGAGUACAGGAUAUACAUGAAAAGAGUCGAAAGACUCAAAACAUGAGGAUCACCCAUGUAGAAGGGUACUCAA [Hyphema Seclusion Mod 62% 2] | 137 | 98.9
27 | AAGAGUAGAGGAUAUACGGGAAAAGAGUCGAAAGACUCAAAACAUGAGGAUCACCCAUGUAGAAGGCUACUCAA [Hyphema Seclusion Mod 62% 6] | 87.7 | 102
28 | AAGCACAGAGGAUAUACAUGGGUAAAAAAAAAAAAAAAAAAACAUGAGGAUCACCCAUGUAGAAGGCUGUGCAA | 32.6 | 24.3
29 | AAGCUGCUAGGAUAUACAGCAGGGAUUCGAAAACCCACGAAACAUGAGGAUCACCCAUGUAGAAGGAGUAGGGA [Attixe] | 22.9 | 15.2
30 | AAGGGACAUGAGGAUCACCCAUGUCAGGAUAUGCUAUGGAAAAAUAAAAUAAAACAUAGCAGAAGGGAUAAAAA [Mat - Exclusion 1 - Eli mod - D32] | 23 | 51.1
31 | AAGGGACAUGAGGAUCACCCAUGUCAGGAUAUGCUAUGGAAAAUAAAAAUAAAACAUAGCAGAAGGGAUAAAAA [Denovo 3] | 20.2 | 45.4
32 | AAGGGACAUGAGGAUCACCCAUGUCAGGAUAUGCUAUGGAAAUAAAAAAUAAAACAUAGCAGAAGGGACAAAAA [Mat - Exclusion 1 - Eli mod - D33] | 41.2 | 67.6
33 | AAGGGACAUGAGGAUCACCCAUGUCAGGAUAUGCUAUGGAAAUAAAAAAUAAAACAUAGCAGAAGGGACACCAA [Mat - Exclusion 1 - Eli mod - D49] | 24 | 39.2
34 | AAGGGACAUGAGGAUCACCCAUGUGAGGAUAUGAUGCGAAUAAAGAAAGAAGAAAGCAUCAGAAGGCACACCAA [58%, Disencluded 3, 7] | 67.8 | 146
35 | AAGUUACAUGAGGAUCACCCAUGUGAGGAUAUGUGUAUCCCUAAAAAAGUGUGGGACCACAGAAGGUACUUGGA [Mod 2 of Atanri by ViennaUCT, Round 1] | 42.9 | 44.5
36 | AAGUUAUUAGGAUAUACUUGUGCGAUUAAUACGUUGAUAUUACAUGAGGAUCACCCAUGUAGAAGGAAUAAAAA [JR_Exc002_Sub412] | 24.4 | 19.4
37 | AAGUUGCUAGGAUAUACUUGGGCAACAAAUAAACUAAUAUAACAUGAGGAUCACCCAUGUAGAAGGAGCAGAAA [JR_Exc002_Sub206] | 31.8 | 34.9
38 | AAUAACAGAGGAUAUGCAAAAAUAAGCGGAAACGCAAGAAAACAUGAGGAUCACCCAUGUAGAAGGCUGGAUAA [Tetraloop hairpin BlockHead Variations] | 24.6 | 16.7
39 | AAUAAUGCAGGAUAUACUAAAGAAAUGAAAAGAAAUAAAGAACAUGAGGAUCACCCAUGUAGAAGGGCAAAUAA [Yakareb] | 52 | 29.3
40 | AAUGAUUUAGGAUAUACAUGAGGAUCACCCAUGUUCAAAUCGUGGGUCAGGUGAGAAGGUAGAAGGAAAUCACU [Soberior] | 113 | 185
41 | AAUUAGGUAGGAUAUACAUGAGGAUCACCCAUGUGGAAAAAAAACUACGAAAAAGAAUGUAGAAGGACCUAAAA [Ex 3 Frozen] | 18.8 | 21.9
42 | AAUUAGUGAGGAUAUACAUGAGGAUCACCCAUGUGUAAAAAAAAACGCAAAAAAGAAUGUAGAAGGCACUAAAA [Ex 3 Cold] | 20.3 | 37.9
43 | ACAAACCAAGGAUAUACAUGAGGAUCACCCAUGUGUUCGGCGUUUAGCAUGGGCAGCAGUAGAAGGUGGAGAAA [Dilareat] | 37.4 | 93.1
44 | ACAGUUACAGGAUAUACAUGGGUGAAAAAAGUAUAUCCACUACAUGAGGAUCACCCAUGUAGAAGGGUAACUGA [Ex2 Design 174: Random 3] | 18.6 | 12.3
